Experiments:
Format in all cases: cell-based, human
[1] = tested on: wild-type and variant SNAP-GIPR; assay: Constitutive and agonist-mediated internalization, reversible SNAP-tag labelling, AD293 cells; set-up: key to Internalisation, Vehicle / Internalisation, +GIP / Internalisation, GIP-only: % internalization: residual fluorescence after Mesna vs pre-Mesna; Surface expression: unit not given here; conditions: Mean
How it was run: (§1)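 Surface SNAP-GIPR signal removable by Mesna was tracked by imaging before and 10 min after treatment in pH 8.6 TNE buffer. Internalization is the Mesna-resistant share of specific fluorescence.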

[2] = tested on: wild-type and variant SNAP-GIPR; assay: Constitutive and agonist-mediated internalization, reversible SNAP-tag labelling, INS-1 cells; set-up: key to Internalisation, GIP-only / Internalisation, Vehicle / Internalisation, +GIP: % internalization: residual fluorescence after Mesna vs pre-Mesna; conditions: Mean
How it was run: as §1

[3] = tested on: wild-type and variant SNAP-GIPR; assay: cADDis cAMP imaging in AD293 cells, ensemble, expression-matched and per decile; conditions: Fig S3F, cADDis, mean
How it was run: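 Transient SNAP-GIPR plus cADDis BacMam in AD293; 24 h; SNAP-Surface AF647 500 nM, 10 min RT; wide-field 10X imaging at 37°C in KRBH/6 mM glucose/0.1% BSA. Cells failing IBMX/FSK response criteria excluded.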

[4] = tested on: wild-type and variant SNAP-GIPR; assay: Single-concentration GIP cAMP response by HTRF in INS-1 cells; conditions: Fig S3E, mean
Method: (§2) All variants were tested in parallel on each occasion to control for transfection efficiency differences between experiments.

[5] = tested on: wild-type and variant SNAP-GIPR; assay: Surface SNAP-GIPR expression (SNAP-tag labelling) in AD293 cells; conditions: for AD293 Surface: Fig S3E, mean; for Surface SNAP-GIPR expression: sheet Fig 1C;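 as to all read-outs here: scaled to the experimental average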
How it was run: (§3)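 Surface GIPR is quantified from wide-field images after labelling intact transfected cells with a membrane-impermeant SNAP probe at 500 nM for 10 min at room temperature. Specific signal, corrected for nontransfected cells, is normalized to the experiment-wide average or to wild-type.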

[6] = tested on: wild-type and variant SNAP-GIPR; assay: Single-concentration GIP cAMP response by HTRF in AD293 cells; conditions: Fig S3F, HTRF, mean;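 also: ratio to experiment-wide average response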
Method: as §2

[7] = tested on: wild-type and variant SNAP-GIPR; assay: Surface SNAP-GIPR expression (SNAP-tag labelling) in INS-1 cells; conditions: Fig 4G; Mean
How it was run: as §3

B1: S447T (protein, UniProt P48546 22-466, looked up, variant S447T)
Gastric inhibitory …: RAETGSKGQTAGELYQRWERYRRECQETLAAAEPPSGLACNGSFDMYVCWDYAAPNATARASCPWYLPWHHHVAAGFVLRQCGSDGQWGLWRDHTQCENPEKNEAFLDQRLILERLQVMYTVGYSLSLATLLLALLILSLFRRLHCTRNYIHINLFTSFMLRAAAILSRDRLLPRPGPYLGDQALALWNQALAACRTAQIVTQYCVGANYTWLLVEGVYLHSLLVLVGGSEEGHFRYYLLLGWGAPALFVIPWVIVRYLYENTQCWERNEVKAIWWIIRTPILMTILINFLIFIRILGILLSKLRTRQMRCRDYRLRLARSTLTLVPLLGVHEVVFAPVTEEQARGALRFAKLGFEIFLSSFQGFLVSVLYCFINKEVQSEIRRGWHHCRLRRSLGEEQRQLPERAFRALPSGSGPGEVPTSRGLTSGTLPGPGNEASRELESYC
[1]; Fig 4E, GIP 100 nM
  +GIP internalisation (100 nM): 0.6943
  GIP-specific internalisation (100 nM): 0.1731
[1]; Fig 4E
  Constitutive internalisation (100 nM): 0.5211
  Surface expression: 1.271
[1]; Fig S4C, AD293
  Internalisation, +GIP: 54.6308
  Internalisation, GIP-only: 13.6704
  Internalisation, Vehicle: 40.9604
[2]; Fig 4G, GIP 100 nM
  +GIP internalisation (100 nM): 0.5789
  GIP-specific internalisation (100 nM): 0.1373
[2]; Fig 4G
  Constitutive internalisation (100 nM): 0.4416
[2]; Fig S4C, INS-1
  Internalisation, +GIP: 49.3117
  Internalisation, GIP-only: 11.6867
  Internalisation, Vehicle: 37.625
[3]; AD293, 100 pM
  AD293 100 pM cADDis: 33.2503
[3]; AD293, 100 nM
  AD293 100 nM cADDis: 38.05
[4]
  INS-1 cAMP (100 nM): 1.225
[5]; column repeated, paired with cAMP 100 nM
  AD293 Surface: 1.404
[5]; paired with cAMP 100 pM
  AD293 Surface: 1.404
[5]; replicate 1
  Surface SNAP-GIPR expression: 1.604
[5]; replicate 2
  Surface SNAP-GIPR expression: 1.279
[5]; replicate 3
  Surface SNAP-GIPR expression: 1.391
[5]; replicate 4
  Surface SNAP-GIPR expression: 2.61
[5]; replicate 5
  Surface SNAP-GIPR expression: 1.403
[5]; replicate 6
  Surface SNAP-GIPR expression: 1.423
[5]; replicate 7
  Surface SNAP-GIPR expression: 1.077
[5]; replicate 8
  Surface SNAP-GIPR expression: 1.469
[5]; replicate 9
  Surface SNAP-GIPR expression: 1.63
[5]; replicate 10
  Surface SNAP-GIPR expression: 1.374
[5]; replicate 11
  Surface SNAP-GIPR expression: 1.745
[5]; replicate 12
  Surface SNAP-GIPR expression: 1.689
[5]; replicate 13
  Surface SNAP-GIPR expression: 1.462
[5]; replicate 14
  Surface SNAP-GIPR expression: 1.46
[5]; replicate 15
  Surface SNAP-GIPR expression: 1.674
[5]; replicate 16
  Surface SNAP-GIPR expression: 1.628
[5]; replicate 17
  Surface SNAP-GIPR expression: 1.349
[5]; replicate 18
  Surface SNAP-GIPR expression: 1.205
[5]; replicate 19
  Surface SNAP-GIPR expression: 1.299
[5]; replicate 20
  Surface SNAP-GIPR expression: 1.361
[5]; replicate 21
  Surface SNAP-GIPR expression: 1.342
[5]; replicate 22
  Surface SNAP-GIPR expression: 1.393
[5]; replicate 23
  Surface SNAP-GIPR expression: 1.314
[5]; replicate 24
  Surface SNAP-GIPR expression: 1.27
[5]; replicate 25
  Surface SNAP-GIPR expression: 1.747
[5]; replicate 26
  Surface SNAP-GIPR expression: 1.476
[5]; replicate 27
  Surface SNAP-GIPR expression: 1.434
[5]; replicate 28
  Surface SNAP-GIPR expression: 1.161
[5]; replicate 29
  Surface SNAP-GIPR expression: 0.9451
[5]; replicate 30
  Surface SNAP-GIPR expression: 1.119
[5]; replicate 31
  Surface SNAP-GIPR expression: 1.316
[5]; replicate 32
  Surface SNAP-GIPR expression: 1.418
[5]; replicate 33
  Surface SNAP-GIPR expression: 1.322
[5]; replicate 34
  Surface SNAP-GIPR expression: 1.362
[5]; replicate 35
  Surface SNAP-GIPR expression: 1.415
[5]; replicate 36
  Surface SNAP-GIPR expression: 1.515
[5]; replicate 37
  Surface SNAP-GIPR expression: 1.174
[5]; replicate 38
  Surface SNAP-GIPR expression: 1.292
[5]; replicate 39
  Surface SNAP-GIPR expression: 1.035
[5]; replicate 40
  Surface SNAP-GIPR expression: 1.181
[5]; replicate 41
  Surface SNAP-GIPR expression: 1.207
[6]; AD293, 100 pM
  AD293 100 pM HTRF: 1.563
[6]; AD293, 100 nM
  AD293 100 nM HTRF: 1.418
[7]
  Surface expression: 1.143
